The values that follow come from a protein production outcome set (Wang et al. 2014).
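Further: failed if final PepcDB status was selected cloned or expressed and not failed if soluble or beyond.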

A short description of the data set: label from the status in PepcDB records.
Turning to “MLALVKRNCLLYFRNRSGVVFSLLGALISFILYLVFLKDNIESSWSQIDNTNQLLDTWLIGGTLAITGITTTLSNLSQWTKDKESHVRQDLLITDLGYWPLSLSYIISAALVGFIMQAIMLTIMGTYFYFTDKVTLSWTVLLQLIFIMILNTLISTIINALIVNRIQSVDNLGKLATIFGAASGFLVGTYVPIGALPDTAQTIMKLTPGAYIASLFRQTLMSDTLKDNFSQANAREHFEKMMGIRLNWQNLLTNTDTYYIVIGILVAGVLIFCLQNALRKYQALI”, the protein production result is on record as “failed”.

For “LVTISSTSAASLPTMPPSGYDQVRNGVPRGQVVNISYFSTATNSTRPARVYLPPGYSKDKKYSVLYLLHGIGGSENDWFEGGGRANVIADNLIAEGKIKPLIIVTPNTNAAGPGIADGYENFTKDLLNSLIPYIESNYSVYTDREHRAIAGLSMGGGQSFNIGLTNLDKFAYIGPISAAPNTYPNERLFPDGGKAAREKLKLLFIACGTNDSLIGFGQRVHEYCVANNINHVYWLIQGGGHDFNVWKPGLWNFLQMADEAGLTRDGNT”, the protein production entry was “not failed”.

“MLSTNKFAVLAFATFVAFQAPAHAEDAVVAKVGNLEIHQSELDLAVANLDPQLAQLPDDQKKVAALSAAIDVKLLAAGATTEKLEQTDEFKKRMQYLTDRELHNAYFKKHVVDTVTPDEIKARYDKEVAALPKQEEVHARHILVKTEDEAKDIIKQLDAGKDFAELAKEKSTDPNKSEGGDLGYFSRGRMVKEFEDAAFALEKGAYSKTPVKTDFGYHVIKVEDKRDAPPPPFDQVQDQVRQLVMRDKYLALLNQAKSSAKIEISDETLRKGYDEANKQPEPGSEPPQPAPKQ”: the protein production entry is listed as “failed”.

As to “MDWAQLLPSMKTRTGVATSPPPARSFYCHPSARKNPLHLHLITDAVARNILETLFRTWMVPAVVVSFYDAEELKPLVSWIPNNHYSGLYGLMKLVLPSILPPSLARVIVLDTDVTFSSDIVELWALFDHFSDKQVVGLVENQSDWYLGNLWKNHRPWPALGRGFNTGVILLWLDRLQQTGWEQMWKVTAKRELLTLMATSLADQDIFNAVIKEHPHLVHPLPCVWNVQLSDHTRAERCYLEAADLKVIHWNSPKKLRVKNKHAEFFRNLHLTFLGYDGKLLRRELFGCPNQFPPGAEQLQQALTQLDEEEPCFEFRQQQLTVHRVHITFLPHQPPPPQPHDVTLVAQLSMDRLQMLEALCRHWPGPMSLALYLTDEEAQQFLHFVETSPVLSMRKDVAYHVVYRDGPLYPVNQLRNVALAQALTPYVFLSDIDFLPAYSLYDYLRASIEQLELDSRRKTALVVPAFETLHYRFSFPNSKAELLTLLDAGSLHTFRYHEWPQGHSSTDYSRWREAQAPYSVQWSADYEPYVVVPRDCPRYDPRFVGFGWNKVAHIIELDAQEYEFLVLPEAFSIHLPHAPSLDISRFRSSPTYRNCLQALKEEFHQDLSRRYGSAALKYLTALQQARSRA”, the protein production result is on record as “failed”.

As to “MAYEERRSSILDSFSLSPLPYPVLLILAVASVFLLSSWYFSLEEAAESAEEQINFALLLIPLFLIVLVRWLSSMENPDALLGMFSSSRRTTYVSPGAGGDGGSSPWGVAALIVLLLVLLQYQSSFLEMWSG”, the protein production result is given as “failed”.

Take “MKNIAFFDFDGTITSTDSYTPFIFQTIPASRMKKGKFLLAPYILGYRLKLIRGTVLRSKIFKLGFAGLDADEIQQKGLSFSQSYLPQIIRPQALERIQWHLAQGDHVVVVSASMDVYLKPWCTQYGLDLLCSEVDTINGKITGIYKNGDCSREVKKQRILDNYDLSLYAAIYAYGDTIEDQAMLSLATHGFYRWQPINPR”: the protein production entry is given as “failed”.

“MNHSFRTGITGRRFSAMRVPYGRSRRTHRNGGAGREGTTMTTTTTPTTTTPTSPPTVKAPTVKAPTAKTATAKTADNPVLRVAPASPAAAAAYFGASLAFHADVSDVATALAAGGDPGFVVLDSRSTASWDQGHVPGAVHLPTALIPEQAEQLLDRSVPVVTYCWGPGCNGATRAALALAELGFQVKEMLGGFEYWVREGFEYETWEGRDHRVADPLTAPVDADDCGC”: the protein production result is given as “failed”.

As for “MARYINITLEKRGVTCKALLLDDVAPRTSKAVWDALPQSSQVFHGKYARNEIYNLVPAFAPKEPGAENTTVTPIPGDVCYFTFTSNDLKTPSHGYEADSGTDEVQTIVDLAVFYGRNNLLLNGDTGWVPGNVFATIVEGLDEMAAACQDIWMGGARDETLTFSRAEDTA”, the protein production entry is reported as “not failed”.

For the sequence “MSIEPVFILVRPQMGENIGAAARAMLNFGLGRLRIVDPRDGWPNPKAVAMASGAGRLLDHAGLFPTVAEAIRDCDYVFATTARGRELTKPVMTPERAMAHGRALTGEGRRVGILFGPERTGLENEDVALANAIVTVPVNPEFFSLNLAQCVLLLAYEWRRQHDETPPEVIDMARVDFASGLEVEKLGD”, the protein production entry is given as “failed”.

As to “EAHRVLFGFVPETKEELQVMPGNIVFVLKKGNDNWATVMFNGQKGLVPCNYLEPV”, the protein production entry is recorded as “not failed”.

As for “MNYVVLGASAAGINAVKTLRELDKDSNIVVISKDENVYSRCMLHHVISEHRTLKQINFVDEDFMEQNNVKWIAGKTVKGIDINKKVVQTEDITVNYDKLLIATGASSAIPPIKNLRDGNFVYSVRNIDDIYKIKEKAQNSKNVVIIGAGLVGIDALVGLFKYEQLNISVAFMEKYILDRQLDEYTASVYENKFKEKGVKFYPSASIQEIVLDNSKNVTGVAFSNGEVLDADMVIVATGVKPNADFLDGTGIEYDRGIIIDDMCQTTQKDIYAAGDVVGKNAIWPLAVKQGIVAAYNMVGKDKKIEDEFAFKNSMNFMDIPTISIGMNTPVDDSYKVLTRHGINDYKKFVFKDNVIYGAVIQGDISYVGVLTYLIKNKVEIYDLENRIFDICYADFFNIKENGEFCYSV”, the protein production entry was “failed”.

Take “SLLDVAVSPDDRFILTADRDEKIRVSWAAAPHSIESFCLGHTEFVSRISVVPTQPGLLLSSSGDGTLRLWEYRSGRQLHCCHLASLQELVDPQAPQKFAASRIAFWCQENCVALLCDGTSVVYIFQLDARRQQLVYRQQLAFQHQVWDVAFEETQGLWVLQDCQEAPLVLYRPVGDQWQSVPESTVLKKVSGVLRGNWAMLEGSAGADASFSSLYKATFDNVTSYLKKKEERLQQQLEKKQRRRSPPPGPDGHAKKMRPGEATLSC”: the protein production entry is reported as “failed”.

As for “SGCRCCKIIQSYLFDPVQVPSPGYVNEVNSCKLDEDDTDKLKGKWSSEVLVQKNDPQRQGSKKTESSSRTADPWEPCWPHQGPLPQGDAGGEHHACGVNGIGPAATPQPTGNSSPTQDDRGSWASTANTVPPTQPFLEGGGTRKQDCVLLASEGTQVMRNGDSRAPSEAESFALEVQDHVFQIPAPDYLQHWGPAGDNVDHNEKDCVFKNHTEDESLEGIQPPVGEHGLNTPFSVRRSWDSLNEDVETEVLSICFNEKGPVHAMPVVDSGNRQEDTHGSDGDGDGEIVDEDAAVAEALAALEAATAGEDLDETD”, the protein production entry is given as “not failed”.

As to “SQEQAQTTDWRATLKTIRNGVHKIDTYLNAALDLLGGEDGLCQYKCSDGSKPFPRYGYKPSPPNGCGSPLFGVHLNIGIPSLTKCCNQHDRCYETCGKSKNDCDEEFQYCLSKICRDVQKTLGLTQHVQACETTVELLFDSVIHLGCKPYLDSQRAACRCHYEEKTDL”, the protein production entry was “not failed”.

On to “MRLVEIGRFGAPYALKGGLRFRGEPVVLHLERVYVEGHGWRAIEDLYRVGEELVVHLAGVTDRTLAEALVGLRVYAEVADLPPLEEGRYYYFALIGLPVYVEGRQVGEVVDILDAGAQDVLIIRGVGERLRDRAERLVPLQAPYVRVEEGSIHVDPIPGLFD”, for which the protein production entry is given as “not failed”.

As to “GQPSNDKKNVLPDWAFGGFERPQGANPVISPIENTKFYCPMTQDYVAWESNDTFNPAATLHDGKIVVLYRAEDKSGVGIGHRTSRLGYATSSDGIHFKREKTPVFYPDNDTQKKLEWPGGCEDPRIAVTAEGLYVMTYTQWNRHIPRLAIATSRNLKDWTKHGPAFAKAYDGKFFNLGCKSGSILTEVVNGKQVIKKIDGKYFMYWGEEHVFAATSEDLVNWTPYVNTDGSLRKLFSPRDGHFDSQLTECGPPAIYTPKGIVLLYNGKNSASRGDKRYTANVYAAGQALFDANDPTRFITRLDEPFFRPMDSFEKSGQYVDGTVFIEGMVYYKDKWYLYYGCADSKVGMAIYNPKKPAAADPLP”, the protein production result is on record as “not failed”.

As to “MNSPSHLEVREGADINLYNQILIPLYGADIRDSVVQYGLSLAETYDAALHVLYIQDEERTEVESDQVTKQEEWDAAAVIEPVVDQAHSLGLNVIPAVDSGHSPGVIREYAEENDIDLLVHQKPTQTRLARILRRDVSSHIIQNISLPVLTIPDMDPSDPVGELSTSQFTDILVPTDGYDEASVAFKHGLQIAKRYDATLHGLFIISEQSYSSRPGFTWEEVTDSWEQRGTRLLEDITEKAATLDVPVRTTLRFGQPQQEILKYTEVTDIDLVTMGTRGLTGIRRLLQGSVAAQVIEEADYPVLTINRRTAELKKHPYTFLRKTNQNRKSRLY”, the protein production result is listed as “failed”.

Regarding “MKANFGYITPVPLNMELIDISLSKTQKRTPTVIHPQYNIVKIRMFYMRKVKHAGNEFASRLGTILTDFPRIEDIHPFYGDLINVLYDRDHYKLALGHVNAAKNGIEKVSKEFVKLLKFADSLYRCKQLKRAALGRMASAAKKLGKTLEYLEEVRMHMSRLPSIDLSGRTLLVCGFPNVGKSSFVRKISRADVEVQPYPFTTKSLYVGHFDYKYLQWQVIDTPGILDQPLENRNTIEMLSITALAHIKAVVLYFIDLSETCGYSVEEQMDLFNTLNPLLSSNMVIVLSKSDVLGLSGMEDKKAIMSFLEGKKYMEMSCEKEENIDAVKAMACDLLLDERFERKINSERLSEYINRITIVRPKELREKAESFICSREVTEIENEQERYLIPEEYRYDIVPEIVDGKNVADFFDPDIEKKLKEVEEEEEGLLPMYCKTYDVLSPEERALKEEVVAGIERRRIINRLREKKRLPDSWKHRSRNSGGDIAVHVRRDSKTQVAQPPRLPSKKKARFDDKHYYDRKPKHLYRGRK”, the protein production entry was “failed”.

As for “MSQKRLSRVIYPGTFDPITNGHLDLIERAAQMFDEVIIAVAASPSKNTLFTLEERVEFARQVTSHLDNVSAKGFSGLLVDFAKAEKANVLIRGLRTTVDFEYEFGLTNMYRRLMPGLESVFLTPAEEHAFISSTLVREVAIHGGNVDEFVPAIVANALHQKKKI”, the protein production result is “failed”.

Consider “MRTLKVQALWDGEAGVWVAESDDVPGLATEAATLEELLAKLAVMVPELLEENGVALELPVELRLEATRPLVFS”, for which the protein production result is given as “not failed”.

In the case of “MEDTTFTKVFVGGLAWETHKVSLRNYFEQFGDIVEAVVITDKSSGRSKGYGFVTFCDPEAAQKACVDPAPVIDGRRANCNLAAFGVQRSKPSSPIHGTFRFLSFDTLLLKTLHQEYM”, the protein production result is reported as “failed”.

On to “MTPNEIAAKLSGLATKYHIRDVTLLAGRLLMSFIFLHEGVTLATHFDGAARAMAALGVGLPLFVATIALQLGAGLSVASGLLTRLGGIGLGLFCLATALLFHTNFASQNELLHFEKDLAISGGMFVLAAVGAGRFSLDWLLAGYLQKRQRDKEMARALLAVENQFSVDVQLPV”, for which the protein production result is “failed”.

Consider “MSMSAQGKKAAESTTSTRPAKLDKQAYEAELKRLQAELVDMQQWVVETGARVVIIMEGRDAAGKGSAIKRMTQYLNPRTCRIEALPAPNSREQGQWYFQRYVEKLPTAGEIVIFDRSWYNRAGVERVMGFCTSQEYRRFLHQAPIFERLLVEDGIMLRKYWFSVSDEEQIARFKSRRNDPLRRWKLSPMDLQSITRWEDYSRAKDEMFVHTDIPSAPWYTVESEDKKRSRINVISHLLSTIPYEKIDRP”, for which the protein production result was “failed”.
